From article PMC9046087, “Structural basis of tethered agonism of the adhesion GPCRs ADGRD1 and ADGRF1” (Nature, 2022)

Tested on: ADGRD1
Test: Cell-surface expression by flow cytometry, ADGRD1
Format: cell-based, human
Conditions: ADGRD1 constructs (pD1 Gs part of table), anti-Flag antibody, three independent measurements in duplicate
Description: The wild-type ADGRD1 and ADGRF1 and mutants used in functional studies were constructed into a pTT5 vector with a Flag tag at the N terminus for receptor expression measurement. The basal activity of ADGRD1 and ADGRF1 in mediating Gs signalling was measured by a cAMP accumulation assay using a LANCE Ultra cAMP detection kit (PerkinElmer) following the manufacturer’s instruction. In brief, 2 ml HEK293F cells (Invitrogen; cells were routinely tested for mycoplasma contamination) at a density of 1.2 × 10^6 cells per ml were transiently transfected with 2,000 ng plasmid of the wild-type or mutant receptor and cultured at 37 °C for 48 h with 5% CO2 atmosphere in a shaker shaking at 220 rpm. After collection, the cell-surface expression of the receptors was measured by incubating 10 μl cells with 15 μl monoclonal anti-Flag M2-FITC antibody (Sigma; 1:120 diluted in TBS supplemented with 4% BSA and 20% viability staining solution 7-AAD (Invitrogen)) at 4 °C for 20 min. After incubation, 175 μl TBS buffer was added and the fluorescent signal was measured using a flow cytometry reader (Guava easyCyte HT, Millipore).

Molecule	Cell-surface expression (% of WT)
H605^2.50bA (protein, UniProt Q6QNK2 26-874, looked up, variant H605A) Adhesion G-protein coupled …: VYSRSQDHPGFQVLASASHYWPLENVDGIHELQDTTGDIVEGKVNKGIYLKEEKGVTLLYYGRYNSSCISKPEQCGPEGVTFSFFWKTQGEQSRPIPSAYGGQVISNGFKVCSSGGRGSVELYTRDNSMTWEASFSPPGPYWTHVLFTWKSKEGLKVYVNGTLSTSDPSGKVSRDYGESNVNLVIGSEQDQAKCYENGAFDEFIIWERALTPDEIAMYFTAAIGKHALLSSTLPSLFMTSTASPVMPTDAYHPIITNLTEERKTFQSPGVILSYLQNVSLSLPSKSLSEQTALNLTKTFLKAVGEILLLPGWIALSEDSAVVLSLIDTIDTVMGHVSSNLHGSTPQVTVEGSSAMAEFSVAKILPKTVNSSHYRFPAHGQSFIQIPHEAFHRHAWSTVVGLLYHSMHYYLNNIWPAHTKIAEAMHHQDCLLFATSHLISLEVSPPPTLSQNLSGSPLITVHLKHRLTRKQHSEATNSSNRVFVYCAFLDFSSGEGVWSNHGCALTRGNLTYSVCRCTHLTNFAILMQVVPLELARGHQVALSSISYVGCSLSVLCLVATLVTFAVLSSVSTIRNQRYHIAANLSFAVLVAQVLLLISFRLEPGTTPCQVMAVLLHYFFLSAFAWMLVEGLHLYSMVIKVFGSEDSKHRYYYGMGWGFPLLICIISLSFAMDSYGTSNNCWLSLASGAIWAFVAPALFVIVVNIGILIAVTRVISQISADNYKIHGDPSAFKLTAKAVAVLLPILGTSWVFGVLAVNGCAVVFQYMFATLNSLQGLFIFLFHCLLNSEVRAAFKHKTKVWSLTSSSARTSNAKPFHSDLMNGTRPGMASTKLSPWDKSSHSAHRVDLSAV	102 ± 7 % of WT
H656^3.53bA (protein, UniProt Q6QNK2 26-874, looked up, variant H656A) Adhesion G-protein coupled …: VYSRSQDHPGFQVLASASHYWPLENVDGIHELQDTTGDIVEGKVNKGIYLKEEKGVTLLYYGRYNSSCISKPEQCGPEGVTFSFFWKTQGEQSRPIPSAYGGQVISNGFKVCSSGGRGSVELYTRDNSMTWEASFSPPGPYWTHVLFTWKSKEGLKVYVNGTLSTSDPSGKVSRDYGESNVNLVIGSEQDQAKCYENGAFDEFIIWERALTPDEIAMYFTAAIGKHALLSSTLPSLFMTSTASPVMPTDAYHPIITNLTEERKTFQSPGVILSYLQNVSLSLPSKSLSEQTALNLTKTFLKAVGEILLLPGWIALSEDSAVVLSLIDTIDTVMGHVSSNLHGSTPQVTVEGSSAMAEFSVAKILPKTVNSSHYRFPAHGQSFIQIPHEAFHRHAWSTVVGLLYHSMHYYLNNIWPAHTKIAEAMHHQDCLLFATSHLISLEVSPPPTLSQNLSGSPLITVHLKHRLTRKQHSEATNSSNRVFVYCAFLDFSSGEGVWSNHGCALTRGNLTYSVCRCTHLTNFAILMQVVPLELARGHQVALSSISYVGCSLSVLCLVATLVTFAVLSSVSTIRNQRYHIHANLSFAVLVAQVLLLISFRLEPGTTPCQVMAVLLHYFFLSAFAWMLVEGLALYSMVIKVFGSEDSKHRYYYGMGWGFPLLICIISLSFAMDSYGTSNNCWLSLASGAIWAFVAPALFVIVVNIGILIAVTRVISQISADNYKIHGDPSAFKLTAKAVAVLLPILGTSWVFGVLAVNGCAVVFQYMFATLNSLQGLFIFLFHCLLNSEVRAAFKHKTKVWSLTSSSARTSNAKPFHSDLMNGTRPGMASTKLSPWDKSSHSAHRVDLSAV	86 ± 10 % of WT
